The results in this text go back to PMC8528238 (Nature, 2021).

In assay [1] the target is SARS-CoV-2 RBD sortase A conjugated nanoparticle (24-mer SARS-CoV-2 RBD-ferritin nanoparticle) (SARS-CoV-2, Wuhan strain, UniProt P0DTC2). Kind of assay: BLI. (BLI is a label-free optical method that tracks binding on a fibre tip over time.)
Assay [2] concerns the target T1, monomeric SARS-CoV-2 RBD (wildtype Spike RBD monomer) (SARS-CoV-2, Wuhan strain, UniProt P0DTC2). As to the kind of experiment: ELISA. (In general: In an ELISA, binding on a coated surface is turned into a signal by an enzyme label.)
In assay [3] the target is T1, monomeric SARS-CoV-2 RBD (wildtype …). Kind of assay: SPR.

Bounds are passed on as bounds.

B1: DH1041, SARS-CoV-2-specific ACE2-binding site-focused RBD neutralizing antibody (antibody, V domains shown)
VH: EVQLVESGGGLVQPGGSLRLSCAASGVTFSSYWMSWVRQAPGKGLEWVANIRQDGSEKYSVDSVKGRFTISRDNAKNSLYLQMNSLRAEDTAVYYCARARRADNSGYYGFHFDCWGQGTLVTVSS
VL: QSVLTQPPSVSGAPGQRVTISCTGSSSNIGAGYDVHWYQQLPGTAPKLLIYGNNNRPSGVPDRFSDSKSGTSASLAITRLQAEDEADYYCQSYDSSLSGWVFGGGTKLTVL
As to B1, the binding result in assay [1] and in assay [2] was “binds” in each case.

B2: DH1047 antigen binding fragment (Fab) (Fab, V domains shown)
VH: QVQLVQSGAEVKKPGASVQVSCQASANTFTNHYIHWVRQAPGQGLEWMGIIYPTGGNTIYAQGFQGRVTMTRDTSLNTIYLELSSLRSEDTAVYYCARDVRVDDSWSGYDLLSGGTYFDYWGQGTLVTVSS
VL: not shown
The Kd is a measure of binding affinity in units of concentration. In turn, B2 showed a Kd in assay [3] below 0.02 nM.
